The supplement of paper PMC9876800

Test system: peptide library, one residue held at a place counted from the S/T acceptor
Experiment: relative phosphorylation of the sub-library (ratio to the mean residue at this position); higher = residue favoured
Conditions: human
Method in brief: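 Human or orthologue kinase constructs, purified and recombinant, were incubated under kinase-specific conditions in 384-well plates with biotinylated degenerate peptide sub-libraries. Each sub-library fixed one residue at one position around a central Ser/Thr. Incubations lasted 90 min with peptides at 50 μM and 50 μM ATP spiked with γ-32P-ATP, after which spots on streptavidin membranes were phosphorimaged and quantified by densitometry. Relative sub-library phosphorylation is a ratio to the mean residue at that position.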

STK25, construct: Full length, sequence (O00506 whole entry, looked up): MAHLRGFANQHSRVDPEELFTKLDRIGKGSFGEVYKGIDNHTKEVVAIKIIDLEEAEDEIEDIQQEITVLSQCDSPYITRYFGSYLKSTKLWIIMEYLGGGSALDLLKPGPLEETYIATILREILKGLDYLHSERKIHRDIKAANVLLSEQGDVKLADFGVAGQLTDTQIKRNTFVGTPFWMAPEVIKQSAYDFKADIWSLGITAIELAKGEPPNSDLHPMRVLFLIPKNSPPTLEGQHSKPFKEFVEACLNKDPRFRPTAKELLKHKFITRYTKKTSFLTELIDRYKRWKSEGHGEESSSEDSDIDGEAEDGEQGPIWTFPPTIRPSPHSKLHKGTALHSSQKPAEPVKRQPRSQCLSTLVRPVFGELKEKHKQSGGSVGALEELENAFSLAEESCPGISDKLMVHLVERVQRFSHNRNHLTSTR
PHKG1, construct: Full length, sequence (Q16816 whole entry, looked up): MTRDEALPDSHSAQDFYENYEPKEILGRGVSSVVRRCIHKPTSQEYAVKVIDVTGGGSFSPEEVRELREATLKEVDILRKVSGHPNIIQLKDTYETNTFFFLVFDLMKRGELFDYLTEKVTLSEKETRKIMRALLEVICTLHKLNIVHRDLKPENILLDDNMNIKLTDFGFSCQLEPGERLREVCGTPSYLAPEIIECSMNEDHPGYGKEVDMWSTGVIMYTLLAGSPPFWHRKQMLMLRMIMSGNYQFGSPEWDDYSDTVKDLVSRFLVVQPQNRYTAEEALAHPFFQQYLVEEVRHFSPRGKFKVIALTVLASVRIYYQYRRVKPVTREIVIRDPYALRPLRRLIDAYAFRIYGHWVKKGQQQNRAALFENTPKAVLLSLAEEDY

STK25, construct: Full length (from UniProt O00506)
relative phosphorylation
Conditions | at +1 | at +2 | at +3 | at +4 | at -1 | at -2 | at -3 | at -4 | at -5
A fixed | 0.561 | 0.853 | 0.857 | 0.981 | 0.996 | 1.07 | 0.986 | 1 | 1.24
D fixed | 0.151 | 0.326 | 0.447 | 0.515 | 0.772 | 0.464 | 0.671 | 0.752 | 0.774
E fixed | 0.166 | 0.195 | 0.404 | 0.454 | 0.538 | 0.398 | 0.604 | 0.865 | 0.682
F fixed | 1.28 | 0.564 | 1.01 | 0.718 | 0.756 | 1.19 | 0.875 | 0.975 | 0.922
G fixed | 0.443 | 1.13 | 1.17 | 1.12 | 1.98 | 1.26 | 1.27 | 1.1 | 1.21
H fixed | 0.884 | 1.24 | 1.07 | 1.2 | 1.3 | 1.43 | 1.24 | 1.11 | 1.15
I fixed | 1.87 | 0.572 | 0.895 | 0.845 | 0.453 | 0.86 | 0.777 | 0.775 | 0.801
K fixed | 0.669 | 2.4 | 1.64 | 2.01 | 1.23 | 1.04 | 1.31 | 1.28 | 1.52
L fixed | 1.56 | 0.486 | 0.865 | 0.743 | 0.901 | 0.791 | 0.844 | 0.8 | 0.758
M fixed | 1.89 | 0.735 | 0.926 | 0.822 | 1.14 | 0.879 | 0.974 | 0.99 | 0.899
N fixed | 0.474 | 1.08 | 0.985 | 0.919 | 1.26 | 1.01 | 1.13 | 1.03 | 0.902
P fixed | 0.175 | 0.616 | 0.787 | 1.11 | 0.599 | 0.693 | 0.876 | 0.871 | 1
Q fixed | 0.683 | 0.785 | 0.819 | 0.856 | 0.795 | 0.773 | 0.865 | 0.868 | 0.846
R fixed | 0.947 | 3.75 | 2.26 | 2.19 | 1.66 | 1.25 | 1.38 | 1.3 | 1.38
V fixed | 1.59 | 0.626 | 0.829 | 0.718 | 0.462 | 0.78 | 0.711 | 0.849 | 0.848
W fixed | 2.17 | 0.772 | 0.979 | 0.943 | 0.862 | 1.33 | 1.26 | 1.25 | 1.02
Y fixed | 1.48 | 0.872 | 1.06 | 0.852 | 1.3 | 1.79 | 1.23 | 1.18 | 1.05
pThr fixed | 0.459 | 0.376 | 0.534 | 0.435 | 0.45 | 0.615 | 0.774 | 0.98 | 0.918
pTyr fixed | 0.327 | 0.223 | 0.456 | 0.372 | 0.866 | 0.691 | 0.858 | 0.837 | 0.866

PHKG1, construct: Full length (from UniProt Q16816)
relative phosphorylation
Conditions | at +1 | at +2 | at +3 | at +4 | at -1 | at -2 | at -3 | at -4 | at -5
A fixed | 0.524 | 0.708 | 0.898 | 0.937 | 0.837 | 1.11 | 0.736 | 0.926 | 1
D fixed | 0.175 | 0.2 | 0.276 | 0.343 | 0.512 | 0.624 | 0.356 | 0.439 | 0.436
E fixed | 0.197 | 0.139 | 0.272 | 0.238 | 0.411 | 1.49 | 0.376 | 0.573 | 0.367
F fixed | 3.7 | 1.16 | 1.29 | 1.13 | 1.06 | 0.838 | 0.53 | 0.865 | 1.18
G fixed | 0.491 | 0.721 | 1.06 | 1.02 | 0.741 | 1.13 | 0.824 | 1.15 | 0.937
H fixed | 0.712 | 1.35 | 1.3 | 1.18 | 1.24 | 0.984 | 1.12 | 1.11 | 1.1
I fixed | 1.5 | 0.516 | 0.891 | 0.75 | 0.611 | 0.363 | 0.278 | 0.728 | 0.791
K fixed | 0.777 | 2.04 | 1.37 | 2.01 | 1.44 | 1.12 | 2.55 | 1.56 | 1.46
L fixed | 1.17 | 0.544 | 1.06 | 0.956 | 0.927 | 0.576 | 0.376 | 0.823 | 1.34
M fixed | 1.65 | 0.694 | 0.957 | 0.886 | 1.18 | 0.969 | 0.458 | 0.957 | 0.824
N fixed | 0.513 | 0.739 | 0.786 | 0.866 | 1.32 | 1.28 | 0.721 | 0.764 | 0.664
P fixed | 0.292 | 0.721 | 1.09 | 1.29 | 0.999 | 0.702 | 0.926 | 1.17 | 1.01
Q fixed | 0.779 | 0.703 | 0.782 | 1.01 | 1.14 | 2.05 | 0.936 | 0.927 | 0.779
R fixed | 0.876 | 3.73 | 1.46 | 1.67 | 1.57 | 1.55 | 4.81 | 1.63 | 1.58
V fixed | 1.22 | 0.501 | 0.721 | 0.752 | 0.711 | 0.508 | 0.311 | 0.721 | 0.832
W fixed | 1.21 | 1.48 | 1.56 | 1.1 | 0.931 | 0.813 | 0.98 | 1.58 | 1.71
Y fixed | 1.22 | 1.06 | 1.24 | 0.862 | 1.38 | 0.875 | 0.71 | 1.08 | 0.99
pThr fixed | 0.419 | 0.25 | 0.393 | 0.356 | 0.535 | 0.529 | 0.621 | 0.846 | 0.68
pTyr fixed | 0.329 | 0.171 | 0.348 | 0.254 | 0.675 | 0.4 | 0.469 | 0.721 | 0.599
